According to patent US20060234291A1 (MODPRO, published 2006):
Non-standard residues stand in square brackets, D forms with d. Nle = CCCC[C@H](N)C(=O)O; Orn = NCCC[C@H](N)C(=O)O

Assays:
[1] = biological target: the molecule itself; assay: 1H NMR NOESY and CD spectroscopy, self-association
Excerpt: This is because NOEs only arise between nuclei separated by less than 5 Å [K. Wüthrich, NMR of proteins and nucleic acids, John Wiley & Sons, Inc., 1986] and the distances between Phe35 and Nle16, and between N15 and Lys19, are too long to give rise to NOEs within the monomer and too long to give rise to NOEs in a parallel dimer. […] The inventor concludes that KA-I forms an antiparallel dimer of helix-loop-helix hairpin motifs, and that residues in a and d positions are positioned in the hydrophobic core, whereas all other residues are solvent exposed.
CD spectra were recorded on a Jasco J-715 CD spectropolarimeter, in 0.1, 0.5, or 1 mm cuvettes in the interval from 280-190 nm at room temperature. Each spectrum is an average of six scans and the background was subtracted from the spectrum before the mean residue ellipticity at 222 nm was measured. A 1 mM stock peptide solution was prepared by dissolving the peptide in buffer, under the assumption that the lyophilized peptide contains 25% water. The pH was adjusted by addition of small amounts of 0.1 M-1 M NaOH or HCl. For the concentration dependent studies the stock peptide solution was diluted to the desired concentrations by pipetting. […] The concentration of the stock solution for the concentration dependent measurement was determined by quantitative amino acid analysis. […]

[2] = biological target: the molecule itself; assay: 1H NMR NOESY, self-association
Procedure: The secondary and tertiary structures of LA-42h were investigated by ¹H-NMR spectroscopy. The ¹H-NMR spectrum of LA-42h was assigned from the TOCSY and NOESY spectra recorded in H₂O:D₂O (90:10 v/v) containing 4 vol % of TFE-d₃ at 308 K using methods described in detail previously [S. Olofsson, L. Baltzer, Folding & Design 1996, 347-356]. Most of the spin systems of the amino acids were identified from the αH—NH region in the TOCSY spectrum and the sequential assignments of residues 5 to 19 and 23 to 41were obtained from the NH—NH region in the NOESY spectrum. Due to the cis-trans equilibrium of Pro21, an extra set of resonances with low intensity from the amino acids near the proline in the loop region was identified. The aH chemical shifts are diagnostic of secondary structure formation, and the measured values were compared to tabulated values for random coil conformations [D. S. Wishart, B. D. Sykes, F. M. Richards, J. Mol. Biol. 1991, 222, 311-333]. From their upfield shifts relative to the random coil values, two helical segments were identified in the sequence of LA-42h from […] Nle16 and from Ala25 to Arg40. A loop region was also assigned from the downfield shifts, or absence of deviation relative to random coil conformation, of the α protons. […]

Protein | binding result [1] | binding result [2]
Ac-NAAD[Nle]EAAIKALAEK[Nle]AAKGPVDAAQ[Nle]AEQLAK[Orn]FEAFARAG-NH2 (also: two monomers associate antiparallel into four-helix bundle (dimer)) [KA-I] | binds | 
Ac-NAAD[Nle]EAKIRHLAEK[Nle]AARGPVDAAQ[Nle]AEQLAKKFEAFARAG-NH2 (also: two monomers associate antiparallel into four-helix bundle (dimer), two monomers associate antiparallel into a four-helix bundle) [LA-42h] |  | binds
